Assay results as given in patent US20040086945A1, “Hairless protein-interacting partner complexes and methods thereto” (The Procter & Gamble Company, priority 2002, published 2004).

Key:
Male C3H mice = test: Animal model for hair growth stimulation (HGS) activity; format: in vivo; settings: applied daily for 17 days to shaved, Nair-treated back; day 17 compared to control treatment
Description: Male C3H mice (˜42-48 days old and weighing ˜24 g) purchased from Harlan are acclimatized for 2 days and ˜2 cm^2 area on their back is shaved closely with an electric hair trimmer. To the shaved area, ˜300 μl of Nair lotion (NEW! Quick'n Easy 4 Minute Formula) is thinly smeared with a gloved fingertip for ˜30 sec. The area is wiped with Kimwipes for ˜15 sec and immediately washed under a gentle stream of lukewarm water for ˜50 sec and patted dry with Kimwipes. Test materials are applied (5 animals/test material) daily for 17 days. The shaved area is visually observed every day for anagen conversion and hair growth. Animal backs are photographed on day 8 and 17. In this model Triiodo thyronine (T3) has clear HGS activity (100% HGS activity), as evidenced by early onset of pigmentation and clear increase in hair length at day 17 compared to control treatment (60% ethanol, 20% propylene glycol and 20% Transcutol).

[1] = target: T1, mouse HRt (hairless protein aa 490-1182) (Mus musculus, UniProt Q61645); test: Yeast two-hybrid screen of BD-HRt against human brain cDNA library in AD vector, lacZ coloration on QDO-Xgal plates; format: cell-based; settings: BD-HRt(mouse) x human brain cDNA library in AD-vector
T1 construct: HR cDNA corresponding to the C-terminal half of HR protein (aa residues 490 to 1182, hereinafter HRt); expressed in transfected cells; host or cells: Saccharomyces cerevisiae PJ69-2A transformed with BD-HRt plasmid, mated with Y187 carrying the human brain cDNA library in pACT2
T1 sequence (Q61645 490-1182): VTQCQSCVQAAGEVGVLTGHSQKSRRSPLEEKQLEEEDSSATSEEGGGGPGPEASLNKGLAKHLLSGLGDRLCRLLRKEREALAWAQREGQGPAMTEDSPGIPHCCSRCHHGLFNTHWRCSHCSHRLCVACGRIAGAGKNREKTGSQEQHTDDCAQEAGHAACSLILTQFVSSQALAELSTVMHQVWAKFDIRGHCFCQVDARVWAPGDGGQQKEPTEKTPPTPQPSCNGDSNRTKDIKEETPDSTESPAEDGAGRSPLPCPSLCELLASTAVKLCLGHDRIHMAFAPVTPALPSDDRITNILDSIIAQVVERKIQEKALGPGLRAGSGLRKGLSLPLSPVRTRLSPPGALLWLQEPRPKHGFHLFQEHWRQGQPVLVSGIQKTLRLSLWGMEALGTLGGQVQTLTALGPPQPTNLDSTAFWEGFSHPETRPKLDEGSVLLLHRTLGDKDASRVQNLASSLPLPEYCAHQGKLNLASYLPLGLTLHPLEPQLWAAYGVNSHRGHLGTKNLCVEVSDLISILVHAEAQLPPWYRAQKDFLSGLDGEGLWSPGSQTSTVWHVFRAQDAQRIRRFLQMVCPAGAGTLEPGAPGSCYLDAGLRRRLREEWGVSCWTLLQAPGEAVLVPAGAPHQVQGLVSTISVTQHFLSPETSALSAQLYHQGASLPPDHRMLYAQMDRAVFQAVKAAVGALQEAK
Procedure, shortened: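 Yeast expressing mouse HRt fused to GAL4 BD were mated 20-24 h at 30° C with Y187 carrying a human brain cDNA library in the AD vector. Clones were selected on TDO, then QDO, and streaked on QDO-Xgal. LacZ blue intensity was judged visually and graded high, medium, low or very low.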

Molecule	HGS activity (Male C3H mice) [%]	XGAL (rate and intensity of coloration of colonies on Xgal) [1]
N[C@@H](Cc1cc(I)c(Oc2ccc(O)c(I)c2)c(I)c1)C(=O)O [Triiodo thyronine]	100	
Human […]-mannosidase: human HRt interacting partner, GenBank U60337, SEQ ID NO:80/81 (protein, UniProt O00462 18-879, looked up) Beta-mannosidase: AAELSYSLRGNWSICNGNGSLELPGAVPGCVHSALFQQGLIQDSYYRFNDLNYRWVSLDNWTYSKEFKIPFEISKWQKVNLILEGVDTVSKILFNEVTIGETDNMFNRYSFDITNVVRDVNSIELRFQSAVLYAAQQSKAHTRYQVPPDCPPLVQKGECHVNFVRKEQCSFSWDWGPSFPTQGIWKDVRIEAYNICHLNYFTFSPIYDKSAQEWNLEIESTFDVVSSKPVGGQVIVAIPKLQTQQTYSIELQPGKRIVELFVNISKNITVETWWPHGHGNQTGYNMTVLFELDGGLNIEKSAKVYFRTVELIEEPIKGSPGLSFYFKINGFPIFLKGSNWIPADSFQDRVTSELLRLLLQSVVDANMNTLRVWGGGIYEQDEFYELCDELGIMVWQDFMFACALYPTDQGFLDSVTAEVAYQIKRLKSHPSIIIWSGNNENEEALMMNWYHISFTDRPIYIKDYVTLYVKNIRELVLAGDKSRPFITSSPTNGAETVAEAWVSQNPNSNYFGDVHFYDYISDCWNWKVFPKARFASEYGYQSWPSFSTLEKVSSTEDWSFNSKFSLHRQHHEGGNKQMLYQAGLHFKLPQSTDPLRTFKDTIYLTQVMQAQCVKTETEFYRRSRSEIVDQQGHTMGALYWQLNDIWQAPSWASLEYGGKWKMLHYFAQNFFAPLLPVGFENENTFYIYGVSDLHSDYSMTLSVRVHTWSSLEPVCSRVTERFVMKGGEAVCLYEEPVSELLRRCGNCTRESCVVSFYLSADHELLSPTNYHFLSSPKEAVGLCKAQITAIISQQGDIFVFDLETSAVAPFVWLDVGSIPGRFSDNGFLMTEKTRTILFYPWEPTSKNELEQSFHVTSLTDIY		L (L = Low blue in 5-7 days)
Human metallothionein from cadmium-treated cells: human HRt interacting partner, GenBank V00594, SEQ ID NO:3/4 (protein, listed as Homo sapiens) VPANPRATCPDSSRLFSSPWIPTAPAPPVTPAPAPAPANAKSANAPPARKAAAPAALWAVPSVPRAASAKGRRTSAAAAPDAGTAPLPDVKNATSTNLDFLCTTLTVTVCYIPFSMK		H (H = Intense blue within 2-3 days)
